Measured values from US20090035258A1, “METHODS OF TREATING CANCER BY ADMINISTERING HUMAN IL-18 COMBINATIONS” (priority 2007, published 2009).
Like-named read-outs stand apart in the source and are kept apart here.

Key:
EL-4 T-cell lymphoma = test: IL-18 combination with doxorubicin in EL-4 T cell lymphoma, survival; format: in vivo, mouse
Description: Studies were performed in female C57/BL/6 mice. As a general protocol, C57/BL mice were injected I.P. with 0.2 cc of stock EL-4 cells. EL-4 murine T-lymphoma cells were expanded in RPMI w/10% FCS. All animals were randomized to six or seven mice per study group with food and water ad libitum. EL-4 cells were harvested on day 0, counted and implanted I.P. with 5×10^5 EL-4 lymphoma cells. Animals were randomized to treatment groups of 6/7 animals on Day 3. Doxorubicin was administered IV on Days 3 &10, pos-implantation. mIL-18 (SEQ ID NO:2) was administered S.C. on Days 3-16. The animals were observed daily for toxicity and mortality.
All animals tolerated dosing schedule and levels well by gross observation. On day 16, all dosing was terminated, and median vehicle death occurred on day 17.5. All vehicle mice expired between days 16-18 post-implantation. Increase in lifespan was calculated by study group/vehicle group−1×100%. For mIL-18 (SEQ ID NO:2) combination therapy with doxorubicin in EL-4 T cell lymphoma, the data were analyzed with respect to median survival time and increase in lifespan.
The prolongation of life span in response to combinational therapy with mIL-18 (SEQ ID NO:2) and doxorubicin was assessed in the syngeneic tumor model of female C57BI/6 mice bearing EL-4 T-cell lymphoma. […] As described below, when vehicle animals expired (on day 16) all dosing was terminated. […]

NK cells [1] = test: NK cytotoxicity assay in EL-4 T-cell lymphoma model; conditions: 21 hours post-treatment (FIG. 12)
[2] = test system: murine colon carcinoma, Colo 26; test: IL-18 and 5-FU combination in syngeneic murine colon cancer model Colo26; format: in vivo, mouse; conditions: 5-FU alone or mIL-18 alone
Description: This study aimed to evaluate the efficacy of mIL-18 (SEQ ID NO:2) combination therapy with 5-fluorouracil (5-FU), as compared to monotherapy with 5-FU, or mIL-18 (SEQ ID NO:2) alone. Our study was performed in a well established syngeneic subcutaneous model of murine colon carcinoma, Colo 26, in BALB/c mice. The dosing with mIL-18 (SEQ ID NO:2) was performed daily with 10 μg/mouse s.c. on days 10-30 after tumor inoculation. The dosing with 5-FU was performed i.p. twice a week in the ascending dose: 27, 45 and 74 μg/mouse.
The data comparing tumor volumes in different treatment groups were evaluated at a selected representative time-point, and were expressed as mean+/−SD (FIG. 21), and as median+/−range (FIG. 22). The data were first checked for normal distribution (Gaussian approximation), and standard deviation values were compared to make sure that there is an equal variance. […] Therefore, a non-parametric test (Kruskal-Wallis analysis and Dunn's comparison test) was used for the statistical evaluation. […] FIG. 24 (median+/−SD) and FIG. 25 (mean+/−SD) show the effect of IL-18 and 5-FU combination therapy in same Colo26 syngeneic colon tumor model. […]
Survival of mice bearing Colo26 in different treatment groups was plotted in a Kaplan-Meyer survival curve analysis, and evaluated by Logrank test, and is shown in FIG. 26. […]

[3] = cited from earlier work
[4] = test system: human Ramos B-cell lymphoma line; test: IL-18 combination therapy with RITUXAN in murine human B-cell lymphoma model; format: in vivo, mouse; conditions: first experiment (FIG. 3); mIL-18 single agent 100 μg/dose
Description: The study was performed in outbred female homozygous SCID mice (ICR-Prkdc^scid) that lack both T and B cells.
Mice were injected with human Ramos B-cell lymphoma line that was originally derived from a patient with Burkitt's lymphoma (ATCC catalogue, CRL 1596). The tumor 1:10 homogenate was inoculated into 6-8 week old mice at the dose 0.5 ml per mouse. […] The therapy was initiated when the median tumor volume per group reached 80-150 mm^3 (at day 12 post tumor inoculation). In addition, those mice that grew a tumor with a volume outside of the set limits were excluded from the study.
The number of animals was increased to n=12, in order to have a better window to measure statistical significance. Tumor volume was measured using the viener calipers two to three times a week.

MOPC-315 plasmacytoma = test: IL-18 monotherapy in advanced MOPC-315 plasmacytoma model; format: in vivo, mouse
Text: Based upon a broad spectrum of immunostimulatory properties, IL-18 has been studied in a variety of preclinical tumor models. […] Further support for IL-18 mediated cellular immunity also comes from immunohistochemistry performed on established MOPC-315 tumors in control and IL-18 treated mice. […] In addition, it seems that an intact Fas/Fas ligand pathway is beneficial to anti-tumor response.

NK cells [5] = test system: NK cells

## COc1cccc2c1C(=O)c1c(O)c3c(c(O)c1C2=O)C[C@@](O)(C(=O)CO)C[C@@H]3O[C@H]1C[C@H](N)[C@H](O)[C@H](C)O1 [doxorubicin, reference compound]
EL-4 T-cell lymphoma; doxorubicin monotherapy 12 mg/kg IV days 3 & 10
  increase in lifespan: minimal increase in lifespan
NK cells [1]
  NK cytotoxicity: impaired

## O=c1[nH]cc(F)c(=O)[nH]1 [5-FU, 5-fluorouracil, reference compound]
[2]
  therapeutic effect of monotherapy compared to control: did not show a therapeutic effect better than a control

## human IL-18: recombinant mature form of human interleukin-18 (SEQ ID NO: 1), expressed in Escherichia coli
[3]; 2000 μg/kg administered weekly for up to 24 weeks
  toxicity at highest dose tested: no significant toxicity
[3]; up to 2000 μg/kg weekly for up to 24 weeks
  maximum tolerated dose: not identified

B1: mIL-18: recombinant murine IL-18 (SEQ ID NO:2), used in the pre-clinical studies (protein)
chain: NFGRLHCTTAVIRNINDQVLFVDKRQPVFEDMTDIDQSASEPQTRLIIYMYKDSEVRGLAVTLSVKDSKMSTLSCKNKIISFEEMDPPENIDDIQSDLIFFQKRVPGHNKMEFESSLYEGHFLACQKEDDAFKLILKKKDENGDKSVMFTLTNLHQS
modifications: Murine
[4]
  anti-tumor activity: no activity
MOPC-315 plasmacytoma; 5 mg/Kg daily for approximately 30 days, advanced tumor
  tumor response: reproducible tumor regressions and cure
MOPC-315 plasmacytoma; SCIDs bearing advanced MOPC-315 tumors, similar schedule
  tumor response in SCID mice: failed to regress
MOPC-315 plasmacytoma; after cure with IL-18
  rechallenge with parental tumor: tumor rejection
[2]
  therapeutic effect of monotherapy compared to control: did not show a therapeutic effect better than a control
EL-4 T-cell lymphoma; IL-18 monotherapy 1, 5 and 25 ug/dose S.C. days 3-16
  increase in lifespan: did not show any increase in lifespan
NK cells [5]
  NK cytotoxicity: robust NK cytotoxicity
